Target: T1, streptavidin (Streptomyces avidinii, UniProt P22629 37-163)
T1 construct: also called streptavidin-coated beads; streptavidin-coated magnetic beads
Experiment: direct binding assay with plate-immobilized streptavidin and HRP-conjugated anti-FLAG antibody
Experimental: For the Keap1 binding assay, Keap1 was immobilized on microtiter plates by incubating 100 μL of a 4 μM protein solution in PBS buffer overnight at 4° C., followed by washing (3×150 μL of PBS with 0.5% Tween-20) and blocking with 0.5% bovine serum albumin in PBS for 1.5 h at room temperature. After washing, each well was incubated with 100 μL of purified FLAG-tagged peptide at varying concentrations for 1 hour at room temperature. After washing three times with wash buffer, each well was incubated with 100 μL of 1:2500 dilution of HRP-conjugate mouse anti-FLAG polyclonal antibody (Sigma-Aldrich) for 1 hour at room temperature. After three washing step with wash buffer, 100 μL of 2.2 mM o-phenylenediamine dihydrochloride, 4.2 mM urea hydrogen peroxide, 100 mM dibasic sodium phosphate, and 50 mM sodium citrate, pH 5.0, were added to each well, followed by measurement of the absorbance at 450 nm after 10-20 min using a Tecan Infinite 1000 plate reader. Equilibrium dissociation constants (KD) were determined by fitting the dose-response curves to a 1:1 binding isotherm equation via nonlinear regression using SigmaPlot. Mean values and standard deviations were calculated from experiments performed in triplicate.

T1 sequence (P22629 37-163, tags left off): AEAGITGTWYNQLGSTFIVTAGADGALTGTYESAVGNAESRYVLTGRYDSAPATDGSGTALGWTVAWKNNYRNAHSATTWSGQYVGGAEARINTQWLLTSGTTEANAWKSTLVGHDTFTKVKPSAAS

binding result: no binding
B1: CBD alone (other)
chain: MKIEEGKLTNPGVSAWQVNTAYTAGQLVTYNGKTYKCLQPHTSLAGWEPSNVPALWQLQNNGNNGLELRHG
